Results taken from article PMC10613289, “A circular RNA activated by TGFβ promotes tumor metastasis through enhancing IGF2BP3-mediated PDPN mRNA stability”.

Columns and labels:
[1] = target: T1, IGF2BP3 (recombinant GST fusion) (UniProt O00425 1-579); experiment: competition; against biotin-circITGB6 (1 uM), protein 1 uM; EMSA: 10 mM HEPES pH 7.3, 20 mM KCl, 1 mM MgCl2, 1 mM DTT; competition: 150 mM NaCl, 20 mM Tris-HCl pH 7.5, 1.5 mM MgCl2, 1 mM DTT, 10% glycerol, 4 °C; pull-down at 4 °C, wash 20 mM Tris-HCl pH 7.5, 1 mM EDTA, 450 mM NaCl; conditions: tags: GST (pGEX-6P-1)
T1 sequence (O00425 whole entry, the tested form may be a part): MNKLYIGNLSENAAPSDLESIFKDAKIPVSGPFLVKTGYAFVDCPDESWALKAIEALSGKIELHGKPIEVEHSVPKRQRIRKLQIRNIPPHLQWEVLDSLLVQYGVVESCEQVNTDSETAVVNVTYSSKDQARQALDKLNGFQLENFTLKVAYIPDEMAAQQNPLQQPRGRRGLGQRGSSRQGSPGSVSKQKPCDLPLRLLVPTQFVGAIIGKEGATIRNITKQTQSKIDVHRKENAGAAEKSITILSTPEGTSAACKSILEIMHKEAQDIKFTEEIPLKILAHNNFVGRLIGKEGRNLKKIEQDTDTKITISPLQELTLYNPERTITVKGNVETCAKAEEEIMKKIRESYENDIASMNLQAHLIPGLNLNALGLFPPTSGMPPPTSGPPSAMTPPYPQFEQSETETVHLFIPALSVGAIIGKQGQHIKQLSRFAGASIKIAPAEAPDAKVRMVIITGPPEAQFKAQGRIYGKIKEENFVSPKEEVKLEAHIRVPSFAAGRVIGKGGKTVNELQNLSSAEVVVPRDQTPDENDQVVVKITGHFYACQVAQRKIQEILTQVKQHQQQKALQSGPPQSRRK

[2] = target: T1, IGF2BP3 (recombinant GST fusion); experiment: pull-down; EMSA: 10 mM HEPES pH 7.3, 20 mM KCl, 1 mM MgCl2, 1 mM DTT; competition: 150 mM NaCl, 20 mM Tris-HCl pH 7.5, 1.5 mM MgCl2, 1 mM DTT, 10% glycerol, 4 °C; pull-down at 4 °C, wash 20 mM Tris-HCl pH 7.5, 1 mM EDTA, 450 mM NaCl; conditions: protein: recombinant; tags: GST (pGEX-6P-1); label: 3' biotin
[3] = target: T1, IGF2BP3 (recombinant GST fusion); experiment: competition; displaces biotin-circITGB6 (1 uM), protein 1 uM; EMSA: 10 mM HEPES pH 7.3, 20 mM KCl, 1 mM MgCl2, 1 mM DTT; competition: 150 mM NaCl, 20 mM Tris-HCl pH 7.5, 1.5 mM MgCl2, 1 mM DTT, 10% glycerol, 4 °C; pull-down at 4 °C, wash 20 mM Tris-HCl pH 7.5, 1 mM EDTA, 450 mM NaCl; conditions: tags: GST (pGEX-6P-1)

Binder: ACUAGCUGGUGCGACCAUCAGUGAAGAAGA (ssRNA) [M2 competitor, unlabeled]
- binding result [1]: no binding

Binder: ACUCUAAACGGAGCUGCAUUGAGUGCCACC (ssRNA) [M1 (M1-WT) probe]
- binding result [2]: binds

Binder: ACUCUAAACGGAGCUGCAUUGAGUGCCACC (ssRNA) [M1 competitor, unlabeled]
- binding result [3]: binds
